# According to paper PMC5150538, “Structural basis of myelin-associated glycoprotein adhesion and signalling” (Nature Communications, 2016):
# Substitutions are numbered along the chain they refer to. In names and notes the source's numbering stands.
# B1: Myelin-associated glycoprotein (MAG, Siglec4a): N406Q (protein)
# parent chain: MIFLATLPLFWIMISASRGGHWGAWMPSTISAFEGTCVSIPCRFDFPDELRPAVVHGVWYFNSPYPKNYPPVVFKSRTQVVHESFQGRSRLLGDLGLRNCTLLLSTLSPELGGKYYFRGDLGGYNQYTFSEHSVLDIVNTPNIVVPPEVVAGTEVEVSCMVPDNCPELRPELSWLGHEGLGEPTVLGRLREDEGTWVQVSLLHFVPTREANGHRLGCQAAFPNTTLQFEGYASLDVKYPPVIVEMNSSVEAIEGSHVSLLCGADSNPPPLLTWMRDGMVLREAVAKSLYLDLEEVTPGEDGVYACLAENAYGQDNRTVELSVMYAPWKPTVNGTVVAVEGETVSILCSTQSNPDPILTIFKEKQILATVIYESQLQLELPAVTPEDDGEYWCVAENQYGQRATAFNLSVEFAPIILLESHCAAARDTVQCLCVVKSNPEPSVAFELPSRNVTVNETEREFVYSERSGLLLTSILTIRGQAQAPPRVICTSRNLYGTQSLELPFQGAHRLMWAKIGPVGAVVAFAILIAIVCYITQTRRKKNVTESSSFSGGDNPHVLYSPEFRISGAPDKYESEKQRLGSERRLLGLRGESPELDLSYSHSDLGKRPTKDSYTLTEELAEYAEIRVK
# B2: Myelin-associated glycoprotein (MAG, Siglec4a): Endo-Hf (protein)
# parent chain: B1 parent chain
# B3: MAG1–5 wt glycosylated (full extracellular segment of mouse myelin-associated glycoprotein) (domain or fragment, UniProt P20917 20-508, looked up)
# chain: GHWGAWMPSTISAFEGTCVSIPCRFDFPDELRPAVVHGVWYFNSPYPKNYPPVVFKSRTQVVHESFQGRSRLLGDLGLRNCTLLLSTLSPELGGKYYFRGDLGGYNQYTFSEHSVLDIVNTPNIVVPPEVVAGTEVEVSCMVPDNCPELRPELSWLGHEGLGEPTVLGRLREDEGTWVQVSLLHFVPTREANGHRLGCQAAFPNTTLQFEGYASLDVKYPPVIVEMNSSVEAIEGSHVSLLCGADSNPPPLLTWMRDGMVLREAVAKSLYLDLEEVTPGEDGVYACLAENAYGQDNRTVELSVMYAPWKPTVNGTVVAVEGETVSILCSTQSNPDPILTIFKEKQILATVIYESQLQLELPAVTPEDDGEYWCVAENQYGQRATAFNLSVEFAPIILLESHCAAARDTVQCLCVVKSNPEPSVAFELPSRNVTVNETEREFVYSERSGLLLTSILTIRGQAQAPPRVICTSRNLYGTQSLELPFQGAHR
# modifications: N-linked glycans (made in GnTI- cells); C-mannosylation on W22
# notes: Myelin-associated glycoprotein (MAG), mouse, Ig domains 1-5, residues 20-508 (UniProt numbering, starts after the signal peptide); template mouse S-MAG cDNA; Vector pUPE107.03 with a cystatin secretion signal peptide and a C-terminal His6-tag; also called wt MAG1–5; MAG full ectodomain; source: HEK293 GnTI- EBNA1 cells in suspension, transient, secreted; purified (Ni-NTA, SEC)
# B4: MAG1–5 N406Q glycosylated (domain or fragment, mouse, UniProt P20917 20-508, looked up)
# chain: B3 chain with N387Q
# modifications: N-linked glycans (made in GnTI- cells), lacks the N-linked glycan on residue 406
# notes: Myelin-associated glycoprotein (MAG), mouse, Ig domains 1-5, residues 20-508 (UniProt numbering), with N406Q; also called N406Q mutant; source: HEK293 GnTI- EBNA1 cells in suspension, transient, secreted; purified (Ni-NTA, SEC)
# B5: MAG1–5 wt deglycosylated (domain or fragment, mouse, UniProt P20917 20-508, looked up)
# chain: B3 chain
# modifications: N-linked glycans trimmed down to single N-Acetylglucosamines by Endo-Hf; C-mannosylation on W22
# notes: Myelin-associated glycoprotein (MAG), mouse, Ig domains 1-5, residues 20-508 (UniProt numbering, starts after the signal peptide); template mouse S-MAG cDNA; Same construct as m1 after Endo-Hf treatment; also called deglycosylated MAG1–5; deglycosylated wt MAG1–5; source: HEK293 GnTI- EBNA1 cells in suspension, transient, secreted; purified (Ni-NTA, SEC); deglycosylated with Endo-Hf overnight at …
# B6: MAG1–5 N406Q deglycosylated (domain or fragment, mouse, UniProt P20917 20-508, looked up)
# chain: B3 chain with N387Q
# modifications: N-linked glycans trimmed down to single N-Acetylglucosamines by Endo-Hf
# notes: Myelin-associated glycoprotein (MAG), mouse, Ig domains 1-5, residues 20-508 (UniProt numbering), with N406Q; also called deglycosylated MAG1–5 N406Q; source: HEK293 GnTI- EBNA1 cells in suspension, transient, secreted; purified (Ni-NTA, SEC); deglycosylated with Endo-Hf
# What was measured:
# [1] = size exclusion chromatography; settings: glycan lost; control: wt and other MAG constructs
# SAXS = settings: glycan lost; control: glycosylated wt MAG1–5
# [2] = sedimentation equilibrium AUC, monomer-dimer fit; settings: glycan lost; control: glycosylated wt MAG1–5
# [3] = biological target: the molecule itself; assay: SAXS; ESRF BM29, SEC buffer (150 mM NaCl, 20 mM HEPES pH 7.5), 20 °C (277 K for deglycosylated MAG1–5 N406Q), single concentration of 33-52 μM for each sample; monomer to dimer
# [4] = biological target: the molecule itself; assay: AUC; sedimentation equilibrium, SEC buffer (150 mM NaCl, 20 mM HEPES pH 7.5), 20 °C, 7,500, 14,000 and 20,000 r.p.m., global analysis of several concentrations, speeds and wavelengths; monomer to dimer
# [5] = biological target: the molecule itself; assay: SEC; Superdex200 Hiload 16/60, 150 mM NaCl, 20 mM HEPES pH 7.5
Protein,"oligomerisation, other: Rg (SAXS)",Kd [4] [µM],stoichiometry N [4],other results
B1,"increases, 7.3 vs 6.8",–,–,oligomerisation [1]: increases
B2,"increases, 7.3 vs 6.8",–,–,"oligomerisation, KD [2]: increases, 167 vs 382"
B3,–,382,2,"fraction of dimer (OLIGOMER fit, monomer:dimer ratio at 52 μM) [3]: 0.28 fraction"
B4,–,–,–,binding result [5]: binds
B5,–,167,2,–
B6,–,–,–,binding result [3]: binds
